Laboratory results as given in patent US20180291110A1 (Hoffmann-La Roche, published 2018).
Changes are numbered by the printed parent chain.

B1: 2/99 VH5/VL2 (antibody, V domains shown)
VH: QSMEETGGGLIQPGGSLRLSCAASGFSLSSYAMSWVRQAPGKGLEWVGYIWSGGSTDYADSVKGRFTISRDNSKNTLYLQMNSLRAEDTAVYYCARRYGTSYPDYGDANGFDPWGPGTLVTVSS
VL: DIQMTQSPSSLSASVGDRVTITCRASQSISSYLNWYQQKPGKAPKLLIYRASTLASGVPSRFSGSGSGTDFTLTISSLQPEDFATYYCQQSYSSSNVDNTFGGGTKVEIK
B2: 2/99 VH22/VL3 (antibody, V domains shown)
VH: QSMQESGPGLVKPSQTLSLTCTVSGFSLSSYAMSWVRQHPGKGLEWIGYIWSGGSTDYASWAKSRVTISVDTSKNQVSLKLSSVTAADTAVYYCARRYGTSYPDYGDANGFDPWGQGTLVTVSS
VL: B1 VL with D1A, I2Y
B3: 2/99 VH18/VL2 (antibody, V domains shown)
VH: QVQLQESGPGLVKPSQTLSLTCTVSGFSLSSYAMSWIRQHPGKGLEWIGYIWSGGSTDYAPSLKSRVTISVDTSKNQFSLKLSSVTAADTAVYYCARRYGTSYPDYGDANGFDPWGQGTLVTVSS
VL: B1 VL
B4: 2/99 VH20/VL3 (antibody, V domains shown)
VH: B2 VH with V36I, S60P, W61S, A62L
VL: B1 VL with D1A, I2Y
B5: 2/99 VH1/VL3 (antibody, V domains shown)
VH: B1 VH with Q1V, S2Q, M3L, E4V, P116Q
VL: B1 VL with D1A, I2Y
B6: 2/99 VH5/VL3 (antibody, V domains shown)
VH: B1 VH
VL: B1 VL with D1A, I2Y
B7: 2/99 VH8/VL2 (antibody, V domains shown)
VH: QQLVETGGGLIQPGGSLRLSCAASGFSLSSYAMSWVRQAPGKGLEWIGYIWSGGSTDYASWAKGRFTISKTSTTLYLQMNSLRAEDTAVYYCARRYGTSYPDYGDANGFDPWGQGTLVTVSS
VL: B1 VL
B8: 2/99 VH2/VL3 (antibody, V domains shown)
VH: EVQLVETGGGLIQPGGSLRLSCAASGFSLSSYAMSWVRQAPGKGLEWVGYIWSGGSTDYADSVKGRFTISRDNSKNTLYLQMNSLRAEDTAVYYCARRYGTSYPDYGDANGFDPWGQGTLVTVSS
VL: B1 VL with D1A, I2Y
B9: 2/99 VH22/VL2 (antibody, V domains shown)
VH: B2 VH
VL: B1 VL
B10: 2/99 VH11/VL3 (antibody, V domains shown)
VH: B1 VH with S2Q, M3L, E4L, T6S, I11V, P116Q
VL: B1 VL with D1A, I2Y
B11: 2/99 VH2/VL4 (antibody, V domains shown)
VH: B8 VH
VL: B1 VL with D1A, I2Y, N34S
B12: 2/99 VH17/VL3 (antibody, V domains shown)
VH: B2 VH with S2Q, M3L, Q15E, H39P, A59N, S60P, W61S, A62L, V70K, Q116P
VL: B1 VL with D1A, I2Y
B13: 2/99 VH8/VL3 (antibody, V domains shown)
VH: B7 VH
VL: B1 VL with D1A, I2Y
B14: 2/99 VH1/VL4 (antibody, V domains shown)
VH: B1 VH with Q1V, S2Q, M3L, E4V, P116Q
VL: B1 VL with D1A, I2Y, N34S
B15: 2/99 VH6/VL2 (antibody, V domains shown)
VH: B1 VH with S2Q, M3L, E4V, V47I, P116Q
VL: B1 VL
B16: 2/99 VH7/VL3 (antibody, V domains shown)
VH: B1 VH with S2Q, M3L, E4V, V47I, D60S, S61W, V62A, P116Q
VL: B1 VL with D1A, I2Y
B17: 2/99 VH16/VL3 (antibody, V domains shown)
VH: B2 VH with S2Q, M3L, Q15E, H39P, A59N, S60P, W61S, A62L, Q116P
VL: B1 VL with D1A, I2Y
B18: 2/99 VH9/VL3 (antibody, V domains shown)
VH: B1 VH with S2Q, M3L, E4L, T6S, I11V, S27T, L28F, R96K, P116Q
VL: B1 VL with D1A, I2Y
B19: 2/99 VH18/VL3 (antibody, V domains shown)
VH: B3 VH
VL: B1 VL with D1A, I2Y
B20: 2/99 VH20/VL2 (antibody, V domains shown)
VH: B2 VH with V36I, S60P, W61S, A62L
VL: B1 VL
B21: 2/99 VH12/VL3 (antibody, V domains shown)
VH: B3 VH with Q16E, H40P, A60N
VL: B1 VL with D1A, I2Y
B22: 2/99 VH6/VL3 (antibody, V domains shown)
VH: B1 VH with S2Q, M3L, E4V, V47I, P116Q
VL: B1 VL with D1A, I2Y
B23: 2/99 VH13/VL2 (antibody, V domains shown)
VH: B3 VH with Q16E, H40P, A60N, F78V
VL: B1 VL
B24: 2/99 VH16/VL2 (antibody, V domains shown)
VH: B2 VH with S2Q, M3L, Q15E, H39P, A59N, S60P, W61S, A62L, Q116P
VL: B1 VL
B25: 2/99 VH19/VL3 (antibody, V domains shown)
VH: B2 VH with V36I, S60P, W61S, A62L, V77F
VL: B1 VL with D1A, I2Y
B26: 2/99 VH19/VL2 (antibody, V domains shown)
VH: B2 VH with V36I, S60P, W61S, A62L, V77F
VL: B1 VL
B27: 2/99 VH17/VL2 (antibody, V domains shown)
VH: B2 VH with S2Q, M3L, Q15E, H39P, A59N, S60P, W61S, A62L, V70K, Q116P
VL: B1 VL
B28: 2/99 VH7/VL2 (antibody, V domains shown)
VH: B1 VH with S2Q, M3L, E4V, V47I, D60S, S61W, V62A, P116Q
VL: B1 VL
B29: 2/99 VH15/VL2 (antibody, V domains shown)
VH: B2 VH with S2Q, M3L, Q15E, H39P, A59N, S60P, W61S, A62L
VL: B1 VL
B30: 2/99 VH21/VL3 (antibody, V domains shown)
VH: B2 VH with V36I
VL: B1 VL with D1A, I2Y
B31: 2/99 VH21/VL2 (antibody, V domains shown)
VH: B2 VH with V36I
VL: B1 VL
B32: 2/99 VH13/VL3 (antibody, V domains shown)
VH: B3 VH with Q16E, H40P, A60N, F78V
VL: B1 VL with D1A, I2Y
B33: 2/99 VH12/VL2 (antibody, V domains shown)
VH: B3 VH with Q16E, H40P, A60N
VL: B1 VL
B34: 2/99 VH23-DANG/VL3 (antibody, V domains shown)
VH: QSMQESGPGLVKPSQTLSLTCTVSGFSLSSYAMSWIRQHPGKGLEWIGYIWSGGSTDYASWAKSRVTISKTSTTVSLKLSSVTAADTAVYYCARRYGTSYPDYGDANGFDPWGQGTLVTVSS
VL: B1 VL with D1A, I2Y
B35: 2/99 VH15/VL3 (antibody, V domains shown)
VH: B2 VH with S2Q, M3L, Q15E, H39P, A59N, S60P, W61S, A62L
VL: B1 VL with D1A, I2Y
B36: 2/99 VH11/VL2 (antibody, V domains shown)
VH: B1 VH with S2Q, M3L, E4L, T6S, I11V, P116Q
VL: B1 VL

target: T1, human transferrin receptor (recombinant, for surface plasmon resonance) (human, UniProt P02786 89-760); test: SPR 25C
T1 construct: also called huTfR; human transferrin receptor-biotinylated
T1 sequence (P02786 89-760 limits assumed): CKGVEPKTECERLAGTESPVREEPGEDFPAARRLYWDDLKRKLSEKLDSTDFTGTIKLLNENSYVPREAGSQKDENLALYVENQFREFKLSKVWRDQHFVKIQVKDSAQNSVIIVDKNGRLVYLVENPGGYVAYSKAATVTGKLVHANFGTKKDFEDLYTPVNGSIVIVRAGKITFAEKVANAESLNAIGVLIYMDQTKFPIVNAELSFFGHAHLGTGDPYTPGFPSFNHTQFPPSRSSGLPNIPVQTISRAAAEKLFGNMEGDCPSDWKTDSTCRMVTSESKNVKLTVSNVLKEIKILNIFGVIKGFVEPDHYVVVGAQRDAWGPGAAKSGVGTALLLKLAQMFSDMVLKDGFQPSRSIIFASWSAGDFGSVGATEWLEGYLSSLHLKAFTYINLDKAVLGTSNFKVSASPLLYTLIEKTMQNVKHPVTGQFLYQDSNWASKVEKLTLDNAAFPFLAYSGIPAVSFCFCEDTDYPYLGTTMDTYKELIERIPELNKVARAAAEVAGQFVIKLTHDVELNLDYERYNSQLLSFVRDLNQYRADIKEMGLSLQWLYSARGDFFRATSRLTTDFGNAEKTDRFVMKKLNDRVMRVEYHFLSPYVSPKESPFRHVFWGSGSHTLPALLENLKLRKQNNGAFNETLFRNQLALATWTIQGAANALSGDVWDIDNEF

| Binder | koff |
| --- | --- |
| B1 | 0.00241 s⁻¹ |
| B2 | 0.00143 s⁻¹ |
| B3 | 0.00489 s⁻¹ |
| B4 | 0.00715 s⁻¹ |
| B5 | 0.00431 s⁻¹ |
| B6 | 0.00316 s⁻¹ |
| B7 | 0.00101 s⁻¹ |
| B8 | 0.00384 s⁻¹ |
| B9 | 0.00126 s⁻¹ |
| B10 | 0.00565 s⁻¹ |
| B11 | 0.00263 s⁻¹ |
| B12 | 0.000843 s⁻¹ |
| B13 | 0.001 s⁻¹ |
| B14 | 0.00256 s⁻¹ |
| B15 | 0.00187 s⁻¹ |
| B16 | 0.00145 s⁻¹ |
| B17 | 0.00173 s⁻¹ |
| B18 | 0.00417 s⁻¹ |

| Binder | koff |
| --- | --- |
| B19 | 0.00665 s⁻¹ |
| B20 | 0.00525 s⁻¹ |
| B21 | 0.00586 s⁻¹ |
| B22 | 0.00282 s⁻¹ |
| B23 | 0.00246 s⁻¹ |
| B24 | 0.00197 s⁻¹ |
| B25 | 0.001 s⁻¹ |
| B26 | 0.00769 s⁻¹ |
| B27 | 0.00105 s⁻¹ |
| B28 | 0.00131 s⁻¹ |
| B29 | 0.00216 s⁻¹ |
| B30 | 0.00194 s⁻¹ |
| B31 | 0.00138 s⁻¹ |
| B32 | 0.00277 s⁻¹ |
| B33 | 0.00635 s⁻¹ |
| B34 | 0.000783 s⁻¹ |
| B35 | 0.00207 s⁻¹ |
| B36 | 0.00385 s⁻¹ |
